Data published in patent US11078259B2, “Methods and compositions for promoting thermogenic potential” (Joslin Diabetes Center, Inc., priority 2015, dated 2021).

Legend:
hWAT-SVF clones = assay: Clonal analysis: UCP1-luciferase response to BMP7 pretreatment; assay type: cell-based, human; conditions: for clones UCP1(+), BMP7 Resp(+) / clones UCP1 (−), BMP7 Resp(+) / clones UCP1(−), BMP7 Resp(−): hWAT-SVF clones
Description: (§1) FIG. 8 depicts clonal analysis of human brown and white fat progenitors. Specifically, the strategy of clonal analysis of hWAT-SVF and hBAT-SVF progenitors is shown as a dendrogram. 152 clones from hWAT-SVF and 128 clones from hBAT-SVF were derived by limiting dilution from 4 subjects. Adipogenic capacity was determined by Nile red staining and UCP1 level was determined by luciferase activity on day 18. Detailed selection criteria are described in FIGS. 9 and 10. Selected highly adipogenic clones (adipogenic++) were pre-treated with 3.3 nM BMP7 for 6 days and then differentiated into mature adipocytes in a 96-well plate. Luciferase activity was measured on day 18 and divided into different levels (negative, Neg; low; medium, Med; high) after normalized to protein content. The positive response (+) to BMP7 pretreatment was defined by more than 1.5-fold increase of luciferase activity between BMP7-pretreated and vehicle groups.
(§2) Immortalized progenitor cells were plated and grown in DMEM/H medium supplemented with 10% FBS (day 0). For adipocyte differentiation, cell were grown for 6 days until reaching confluence (day 6), and then treated with the adipogenic induction medium as described above for 12 days (termed as day 18). To further stimulate thermogenic program, fully differentiated cells were incubated with 10 μM forskolin for 4 h. For BMPs and FGF21 pre-treatment, recombinant BMP7 (3.3 nM), BMP8 (3.3 nM), or FGF21 (50 nM) were added to undifferentiated cells in medium containing insulin (0.5 μM), T3 (2 nM) and 2% FBS for 6 days followed by adipogenic induction for 12 days. For BMPs and FGF21 post-treatment, fully differentiated adipocytes at day 18 were treated with recombinant BMP7 (3.3 nM), BMP8 (3.3 nM), or FGF21 (50 nM) in medium containing insulin (0.5 μM), T3 (2 nM) and 2% FBS for 2 days.
(§3) In vitro luciferase assays were performed using luciferase assay kits (Promega, Madison, Wis.) according to the manufacturer's instructions. Remove culture medium from differentiated adipocytes and wash cells in PBS. Dispense an appropriate volume of 1× lysis reagent (Passive Lysis Buffer) into each culture well. Scrape attached cells from the wells, and transfer the cell lysates into white 96-well plate (Corning Inc., Tewksbury, Mass.) for detection of the bioluminescence signal using luminometer plate reader (BioTek Instruments, Inc., Winooski, Vt.). Use a reagent injector to dispense 100 μL of Luciferase assay buffer with substrate and 100 μL of Stop & Glo Reagent. And perform a 2-second pre-measurement delay, followed by a 10-second measurement period for each reporter assay. Luciferase activity data were normalized to protein content.
(§4) To derive subclones of immortalized human white and brown progenitors with hUCP1-promoter-Luc/GFP reporter, limiting dilution of cells into 96-well plates was performed as previously described (Tchkonia, T., et al. Diabetes 55, 2571-2578, 2006). Briefly, cells were plated at 50 cells/96-well plate in DMEM/H containing 10% FBS. After 2 weeks, colonies were evident. Cells at approximately 80% confluence were trypsinized and further propagated in 48-well, then 12-well and finally 6-well plate. 152 clonal lines originated from neck superficial fat depot and 128 clonal lines from deep fat were selected for adipogenic potential after induction. The highly adipogenic clonal lines were selected for further analysis (67 clonal white fat progenitor lines; 90 clonal brown fat progenitor lines).

hBAT-SVF clones = assay: as above; assay type: cell-based, human
Description: as §1, §2, §3, §4

clones UCP1(+), BMP7 Resp(+) (hWAT-SVF clones; Subject 1): 0/32 | clones UCP1 (−), BMP7 Resp(+) (hWAT-SVF clones; Subject 1): 0/32 | clones UCP1(−), BMP7 Resp(−) (hWAT-SVF clones; Subject 1): 32/32 | clones UCP1(+), BMP7 Resp(+) (hWAT-SVF clones; Subject 2): 0/20 | clones UCP1 (−), BMP7 Resp(+) (hWAT-SVF clones; Subject 2): 0/20 | clones UCP1(−), BMP7 Resp(−) (hWAT-SVF clones; Subject 2): 20/20 | clones UCP1(+), BMP7 Resp(+) (hWAT-SVF clones; Subject 3): 1/12 | clones UCP1 (−), BMP7 Resp(+) (hWAT-SVF clones; Subject 3): 0/12 | clones UCP1(−), BMP7 Resp(−) (hWAT-SVF clones; Subject 3): 11/12 | clones UCP1(+), BMP7 Resp(+) (hWAT-SVF clones; Subject 4): 0/3 | clones UCP1 (−), BMP7 Resp(+) (hWAT-SVF clones; Subject 4): 0/3 | clones UCP1(−), BMP7 Resp(−) (hWAT-SVF clones; Subject 4): 3/3 | clones that could respond to BMP7 pretreatment (hWAT-SVF clones; highly adipogenic hWAT-SVF clones, response = more than 1.5-fold increase of luciferase activity): 1% | clones that could respond to BMP7 stimulation (hBAT-SVF clones; hBAT-SVF clones from Subject 2 and Subject 3): more than 60% | clones UCP1(+), BMP7 Resp(+) (hBAT-SVF clones; hBAT-SVF clones, Subject 1): 10/41 | clones UCP1(+), BMP7 Resp(−) (hBAT-SVF clones; hBAT-SVF clones, Subject 1): 29/41 | clones UCP1(+), BMP7 Resp(−), percent (hBAT-SVF clones; hBAT-SVF clones, Subject 1): (71%) | clones UCP1(−), BMP7 Resp(−) (hBAT-SVF clones; hBAT-SVF clones, Subject 1): 2/41 | clones UCP1(+), BMP7 Resp(+) (hBAT-SVF clones; hBAT-SVF clones, Subject 2): 10/15 | clones UCP1(+), BMP7 Resp(+), percent (hBAT-SVF clones; hBAT-SVF clones, Subject 2): (67%) | clones UCP1(+), BMP7 Resp(−) (hBAT-SVF clones; hBAT-SVF clones, Subject 2): 5/15 | clones UCP1(−), BMP7 Resp(−) (hBAT-SVF clones; hBAT-SVF clones, Subject 2): 0/15 | clones UCP1(+), BMP7 Resp(+) (hBAT-SVF clones; hBAT-SVF clones, Subject 3): 9/15 | clones UCP1(+), BMP7 Resp(+), percent (hBAT-SVF clones; hBAT-SVF clones, Subject 3): (60%) | clones UCP1(+), BMP7 Resp(−) (hBAT-SVF clones; hBAT-SVF clones, Subject 3): 3/15 | clones UCP1(−), BMP7 Resp(−) (hBAT-SVF clones; hBAT-SVF clones, Subject 3): 3/15 | clones UCP1(+), BMP7 Resp(+) (hBAT-SVF clones; hBAT-SVF clones, Subject 4): 5/19 | clones UCP1(+), BMP7 Resp(−) (hBAT-SVF clones; hBAT-SVF clones, Subject 4): 14/19 | clones UCP1(+), BMP7 Resp(−), percent (hBAT-SVF clones; hBAT-SVF clones, Subject 4): (74%) | clones UCP1(−), BMP7 Resp(−) (hBAT-SVF clones; hBAT-SVF clones, Subject 4): 0/19 | clones that could be induced by BMP7 pretreatment (hBAT-SVF clones; hBAT-SVF clones, all subjects, response = more than 1.5-fold increase of luciferase activity): up to 37% | response to BMP7 pretreatment (hBAT-SVF clones; majority of the hBAT-SVF clones from Subject 1 and Subject 4): not responsive
B1: BMP7: Recombinant human BMP7, an inducer of brown adipogenesis (protein, UniProt P18075 293-431, looked up)
Bone morphogenetic protein 7: STGSKQRSQNRSKTPKNQEALRMANVAENSSSDQRQACKKHELYVSFRDLGWQDWIIAPEGYAAYYCEGECAFPLNSYMNATNHAIVQTLVHFINPETVPKPCCAPTQLNAISVLYFDDSSNVILKKYRNMVVRACGCH
